In patent publication US20250340641A1 (KYMAB, published 2025):

Legend:
[1] = target: T1, mouse ICOS expressed on the surface of CHO-S cells (mouse, UniProt Q9WVS0 21-200); experiment: flow cytometry on CHO-S cells, purified IgG1
T1 construct: whole, on cells; also called mICOS; Mouse ICOS CHO
T1 sequence (looked up): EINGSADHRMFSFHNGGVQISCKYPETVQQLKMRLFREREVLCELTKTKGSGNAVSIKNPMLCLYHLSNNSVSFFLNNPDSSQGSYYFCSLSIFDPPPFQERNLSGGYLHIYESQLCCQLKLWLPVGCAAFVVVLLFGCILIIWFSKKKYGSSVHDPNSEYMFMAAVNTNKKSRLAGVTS

[2] = target: T2, human ICOS expressed on the surface of cells (human, UniProt Q9Y6W8 21-199); experiment: flow cytometry on CHO-S cells, purified IgG1
T2 construct: also called hICOS; Human ICOS CHO
T2 sequence: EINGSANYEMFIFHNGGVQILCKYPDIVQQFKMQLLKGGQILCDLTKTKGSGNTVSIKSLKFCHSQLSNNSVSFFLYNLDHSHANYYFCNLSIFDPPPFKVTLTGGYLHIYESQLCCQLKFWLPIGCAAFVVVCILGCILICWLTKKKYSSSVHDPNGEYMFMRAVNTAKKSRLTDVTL

B1: CL-61091 (antibody, V domains shown)
VH: QVQLMQSGTEVKKPGASVKVSCKTSGYTFTTYGITWVRQAPGQGLEWMGWISAYSGDTDYAQKFQGRVTVTTDTSTNTAYMELRSLKSDDTAVYYCARSSGWPHHYGMDVWGQGTTVTVSS
VL: DIVMTQSPLSLPVTPGEPASISCRSSQSLLHSNGFNYFDWYLQKPGQSPQLLIFLVSNRASGVPDRFSGSGSGTDFTLKISRVEAEDVGIYYCMQALQTPLTFGGGTKVEIK
fold above the average of geomean of the negative control [1]: > 10 fold
fold above the average of geomean of the negative control [2]: > 10 fold

B2: CL-74570 (antibody, V domains shown)
VH: EVQLVESGGGVIRPGGSLRLSCAASGFTFDDYGMSWVRQAPGKGLEWVSGINWIGDNTDYADSVKGRFTISRDNAKNSLYLQMNSLRAEDTALYYCARDYFGSGSYYNVPF
VL: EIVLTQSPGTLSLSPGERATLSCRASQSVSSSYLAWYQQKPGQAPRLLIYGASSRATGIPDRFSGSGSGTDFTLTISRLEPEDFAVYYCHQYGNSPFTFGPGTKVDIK
fold above the average of geomean of the negative control [1]: > 10 fold
fold above the average of geomean of the negative control [2]: > 10 fold
